In general, Kd refers to the equilibrium constant for the complex coming apart. A lower Kd goes with a tighter complex.

In this test the target is human TREM2 Ig domain (aa 19-134), wild type, biotinylated on a BirA tag (human) (UniProt Q9NZC2). Briefly: BLI. In general terms: Biolayer interferometry detects binding as a change in optical thickness at a sensor tip.
Chain of human TREM2 Ig domain (aa 19-134), wild type, biotinylated on a BirA tag (human) (Q9NZC2 19-134): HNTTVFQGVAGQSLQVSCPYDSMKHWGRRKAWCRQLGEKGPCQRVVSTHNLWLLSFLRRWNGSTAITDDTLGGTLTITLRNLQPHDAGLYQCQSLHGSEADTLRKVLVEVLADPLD

Consider “ApoE3 1-238 (C-term deletion) (domain or fragment)”, for which the Kd was determined as 696 nM. This counts as sub-micromolar.
